Reference: patent publication CN112079918A (CANVEST WUHAN BIOTECHNOLOGY CO LTD, dated 2020)

Assays:
[1] = target: BSA (UniProt P02769 25-607); assay: ELISA
[2] = target: 17SF HA (A/Guangdong/17SF003/2016) hemagglutinin protein (influenza A virus A/Guangdong/17SF003/2016 (H7N9)); assay: ELISA, P51C05 IgG on HA protein
[3] = target: SH02 HA (A/Shanghai/2/2013 H7N9) hemagglutinin protein (influenza A virus A/Shanghai/2/2013 (H7N9)); assay: ELISA, P51C05 IgG on HA protein

Sequence of BSA (P02769 25-607 limits assumed): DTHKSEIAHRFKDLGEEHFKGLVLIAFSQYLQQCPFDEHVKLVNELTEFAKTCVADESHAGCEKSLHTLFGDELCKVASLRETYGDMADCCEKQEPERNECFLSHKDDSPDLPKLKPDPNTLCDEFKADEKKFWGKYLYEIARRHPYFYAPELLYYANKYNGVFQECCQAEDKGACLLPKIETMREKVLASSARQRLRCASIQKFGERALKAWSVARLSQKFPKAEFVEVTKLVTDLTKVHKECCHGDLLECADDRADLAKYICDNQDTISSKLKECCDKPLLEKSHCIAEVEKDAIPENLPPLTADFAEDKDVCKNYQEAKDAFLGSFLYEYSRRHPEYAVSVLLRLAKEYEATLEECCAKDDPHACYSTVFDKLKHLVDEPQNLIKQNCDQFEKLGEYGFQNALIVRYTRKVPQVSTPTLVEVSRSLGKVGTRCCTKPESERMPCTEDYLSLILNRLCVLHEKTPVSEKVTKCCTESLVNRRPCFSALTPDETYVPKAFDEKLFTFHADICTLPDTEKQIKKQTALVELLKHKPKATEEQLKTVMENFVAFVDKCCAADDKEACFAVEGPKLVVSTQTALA

B1: H7N9病毒特异性识别抗体P51C05 (IgG形式) (antibody, V domains shown)
VH: EVQLVQSGSELKKPGASVKVSCKASGYTFTSYTMNWVRQAPGQGLEWMGWINTNTGNPTYAQGFTGRFVFSLDTSVSTAYLQISSLKTEDTAVYYCARGVYGMDVWGQGTTVTVSS
VL: EIVLTQSPGTLSLSPGERATFSCRASQTVSNYLAWYQQKVGQAPRLLIYDASNRATGIPARFSGSGSGTDFTLTISSLEPEDFAVYYCQQRYNWPLTFGGGTKVEIKG
binding result [1]: no binding | EC50 [2]: < 1 nM | EC50 [3]: < 1 nM
